In publication PMC5080380, “Mechanical Strength and Inhibition of the Staphylococcus aureus Collagen-Binding Protein Cna” (mBio, 2016):

Assays:
[1] = biological target: type II collagen purified from bovine nasal septum (bovine) (UniProt P02459); assay: single-cell force spectroscopy (AFM); a single living Cna^(+) S. aureus Phillips bacterium on a colloidal probe cantilever against a Cn substrate (NHS chemistry); PBS, 20°C; contact time 100 ms, 250 pN, 1,000 nm s^-1; Cna^(−) cells as control
[2] = biological target: type II collagen purified from bovine nasal septum (bovine) (UniProt P02459); assay: single-molecule force spectroscopy (AFM); Cn tips (NHS chemistry) on living Cna^(+) S. aureus Phillips bacteria trapped in porous membranes; PBS, 20°C; contact time 100 ms, 250 pN, 1,000 nm s^-1; Cna^(−) cells and 9G7 MAb (10 µg/ml) as controls
[3] = biological target: T1, type II collagen purified from bovine nasal septum (bovine, UniProt P02459 182-1241); assay: single-molecule force spectroscopy (AFM); inverse configuration: Cn on the tip and CNA_(31–344) on the substrate, both by NHS chemistry; PBS, 20°C; contact time 250 ms, 250 pN, 1,000 nm s^-1 (retraction speed varied for koff); 6 tips and substrates; conditions: both partners purified
T1 construct: Collagen type II, bovine, purified from nasal septum; collagen alpha-1(II) chain; Attached to gold-coated tips or substrates by NHS/EDC chemistry, or coated on microtiter wells; also called Cn; type II Cn; source: purified from bovine nasal septum (as described by Strawich and Nimni)
T1 sequence (P02459 182-1241): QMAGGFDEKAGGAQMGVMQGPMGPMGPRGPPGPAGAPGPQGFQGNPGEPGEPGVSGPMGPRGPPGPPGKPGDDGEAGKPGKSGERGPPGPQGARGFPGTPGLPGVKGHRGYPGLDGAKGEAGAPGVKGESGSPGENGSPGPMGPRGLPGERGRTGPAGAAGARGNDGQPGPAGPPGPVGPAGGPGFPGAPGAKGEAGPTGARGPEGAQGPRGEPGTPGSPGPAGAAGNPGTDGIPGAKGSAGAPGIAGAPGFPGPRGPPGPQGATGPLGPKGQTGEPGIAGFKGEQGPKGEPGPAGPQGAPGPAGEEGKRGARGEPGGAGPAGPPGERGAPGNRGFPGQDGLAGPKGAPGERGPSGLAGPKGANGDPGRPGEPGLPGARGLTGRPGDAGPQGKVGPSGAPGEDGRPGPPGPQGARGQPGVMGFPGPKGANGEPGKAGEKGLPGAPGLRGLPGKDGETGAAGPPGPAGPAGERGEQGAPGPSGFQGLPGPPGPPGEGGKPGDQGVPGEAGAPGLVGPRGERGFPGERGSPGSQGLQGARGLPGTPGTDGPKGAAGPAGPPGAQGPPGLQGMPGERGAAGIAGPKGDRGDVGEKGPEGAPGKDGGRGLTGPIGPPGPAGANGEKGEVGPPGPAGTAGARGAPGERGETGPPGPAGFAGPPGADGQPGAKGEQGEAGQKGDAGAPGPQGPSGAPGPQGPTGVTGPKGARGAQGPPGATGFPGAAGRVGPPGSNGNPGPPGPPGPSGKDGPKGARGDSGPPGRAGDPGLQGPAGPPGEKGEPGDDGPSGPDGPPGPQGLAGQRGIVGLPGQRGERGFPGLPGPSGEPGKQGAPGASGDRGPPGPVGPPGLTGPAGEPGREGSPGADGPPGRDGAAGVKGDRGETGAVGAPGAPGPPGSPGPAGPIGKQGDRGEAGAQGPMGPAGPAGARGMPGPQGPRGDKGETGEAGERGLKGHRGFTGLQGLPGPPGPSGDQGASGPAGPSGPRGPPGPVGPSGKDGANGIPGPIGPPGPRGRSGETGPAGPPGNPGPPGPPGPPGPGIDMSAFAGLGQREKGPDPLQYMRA

[4] = biological target: T1, type II collagen purified from bovine …; assay: single-molecule force spectroscopy (AFM); recombinant CNA fragment on the tip at low density by a PEG-benzaldehyde linker, Cn on the substrate by NHS chemistry; PBS, 20°C; contact time 250 ms, maximum applied force 250 pN, approach and retraction speeds 1,000 nm s^-1 (retraction speed varied for the loading-rate plot and koff); 8 tips and substrates; conditions: both partners purified

Sequence of full-length collagen-binding protein Cna expressed on living Staphylococcus aureus strain Phillips cells (natural protein) (Q53654 30-1183): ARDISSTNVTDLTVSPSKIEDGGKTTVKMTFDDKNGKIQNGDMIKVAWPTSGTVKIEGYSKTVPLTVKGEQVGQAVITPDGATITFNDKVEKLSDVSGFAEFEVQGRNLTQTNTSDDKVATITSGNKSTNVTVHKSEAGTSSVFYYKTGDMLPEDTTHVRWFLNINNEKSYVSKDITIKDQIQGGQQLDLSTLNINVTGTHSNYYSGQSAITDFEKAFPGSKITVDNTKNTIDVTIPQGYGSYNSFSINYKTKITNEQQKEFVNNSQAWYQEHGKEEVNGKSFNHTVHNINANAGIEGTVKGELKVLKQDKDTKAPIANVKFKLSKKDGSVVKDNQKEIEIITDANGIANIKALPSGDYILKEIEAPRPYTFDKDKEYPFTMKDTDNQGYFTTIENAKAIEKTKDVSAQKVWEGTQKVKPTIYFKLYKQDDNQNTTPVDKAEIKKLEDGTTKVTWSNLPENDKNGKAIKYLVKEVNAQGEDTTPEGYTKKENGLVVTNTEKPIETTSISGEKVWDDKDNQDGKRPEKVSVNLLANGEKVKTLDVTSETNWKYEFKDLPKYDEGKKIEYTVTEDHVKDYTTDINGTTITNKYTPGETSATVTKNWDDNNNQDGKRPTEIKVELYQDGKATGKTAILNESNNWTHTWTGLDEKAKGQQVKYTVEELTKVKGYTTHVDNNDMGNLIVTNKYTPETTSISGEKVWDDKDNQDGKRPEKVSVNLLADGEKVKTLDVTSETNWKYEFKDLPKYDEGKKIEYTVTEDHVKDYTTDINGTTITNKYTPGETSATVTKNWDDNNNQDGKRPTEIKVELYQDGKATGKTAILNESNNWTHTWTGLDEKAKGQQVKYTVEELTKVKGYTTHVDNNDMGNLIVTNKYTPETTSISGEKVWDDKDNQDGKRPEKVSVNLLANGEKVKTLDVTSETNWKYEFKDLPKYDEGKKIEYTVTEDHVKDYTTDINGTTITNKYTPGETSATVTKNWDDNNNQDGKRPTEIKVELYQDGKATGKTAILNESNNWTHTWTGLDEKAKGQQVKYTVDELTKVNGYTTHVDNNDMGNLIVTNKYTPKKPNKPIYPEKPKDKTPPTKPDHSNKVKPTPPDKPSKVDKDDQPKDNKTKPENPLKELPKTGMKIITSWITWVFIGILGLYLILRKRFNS
Sequence of type II collagen purified from bovine nasal septum (bovine) (P02459 182-1241): as the sequence (P02459 182-1241) above

Row | Molecule | adhesion force (single cell) [1] [pN] | fraction of force curves with adhesion force peaks [1] [%] | strong adhesion force (single cell), cell no. 1 [1] [pN] | strong adhesion force (single cell), cell no. 2 [1] [pN] | strong adhesion force (single cell), cell no. 3 [1] [pN] | strong adhesion force (single cell), cell no. 4 [1] [pN] | strong adhesion force (single cell), cell no. 5 [1] [pN] | strong adhesion force (single cell), cell no. 6 [1] [pN] | strong adhesion forces (single cell) [1] [pN] | weak adhesion forces (single cell) [1] [pN] | strong adhesion forces (single molecule) [2] [pN] | weak adhesion forces (single molecule) [2] [pN] | koff [3] [s⁻¹] | koff [4] [s⁻¹]
1 | full-length collagen-binding protein Cna expressed on living Staphylococcus aureus strain Phillips cells (natural protein) | 100 to 5000 | 54 to 89 | 2120 | 3380 | 2500 | 3250 | 1890 | 3620 | 3160 | 670 | 1170 | 239 | – | –
2 | recombinant CNA_(31–344), N1N2 subdomains of the A region of the Staphylococcus aureus collagen-binding protein Cna (domain or fragment, Collagen adhesin Cna of S. aureus FDA 574, residues 31 to 344 (predicted N1N2 subdomains of the A region); In the assay it was coupled covalently to the AFM tip (PEG-benzaldehyde linker) or to the substrate (NHS chemistry); source: recombinant, cloned into plasmid pQE30, purified) RDISSTNVTDLTVSPSKIEDGGKTTVKMTFDDKNGKIQNGDMIKVAWPTSGTVKIEGYSKTVPLTVKGEQVGQAVITPDGATITFNDKVEKLSDVSGFAEFEVQGRNLTQTNTSDDKVATITSGNKSTNVTVHKSEAGTSSVFYYKTGDMLPEDTTHVRWFLNINNEKSYVSKDITIKDQIQGGQQLDLSTLNINVTGTHSNYYSGQSAITDFEKAFPGSKITVDNTKNTIDVTIPQGYGSYNSFSINYKTKITNEQQKEFVNNSQAWYQEHGKEEVNGKSFNHTVHNINANAGIEGTVKGELKVLKQDKDTKA | – | – | – | – | – | – | – | – | – | – | – | – | 0.0005 | 0.0002
